# This sample holds only a part of the variants without activity.
# B1: TPR 5TU (parent)
# chain: GGAUCUUCUCGAUCUAACAAAAAAGACAAAUCUGCCACAAAGCUUGAGAGCAUCUUCGGAUGCAGAGGCGGCAGCCUUCGGUGGCGCGAUAGCGCCAACGUUCUCAACUAUGACACGCAAAACGCGUGCUCCGUUGAAUGGAGUUUAUCAUG
# Variants of: B1
# Experiment: polymerase ribozyme fitness, log enrichment relative to wild type (log ratio); higher = more active; in vitro selection for triplet polymerase activity
# Procedure, shortened: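 Fitness compares each genotype's enrichment to that of the wild type on a logarithmic scale, averaging replicates with inverse-variance weights. The logarithm is base 2. Enrichment came from Illumina sequencing of input and output libraries after one triplicate round of in vitro selection, which included frozen incubation at −7 °C, of PCR-built, transcribed mutant libraries of each subunit of a heterodimeric triplet polymerase ribozyme. Only genotypes with ≥10 input reads and ≥1 read per output were kept.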
row,Variant,polymerase ribozyme fitness (log ratio)
1,C99U G126A G143U,-3.55
2,C95U U102G C105U,-2.98
3,A107G A121U,-4.18
4,C96A A115C,-0.888
5,C96A A115U,-2.29
6,C99U U145G,-2.09
7,C93G A142G,-3.81
8,C105G,-0.829
9,C105U,0.527
10,C105A,-0.411
11,C96U G124U,-0.372
12,C96U G124A,-0.382
13,C96A A150C,-3.12
14,C93U A98G G124C,-1.76
15,C96G A97U C118A,-3.08
16,A98U U127G,-3.18
17,C95U C96U C118U C125A C129G,≤ -4.2
18,A97U C132A,-2.65
19,G94U C123G G141A U146C,-2.83
20,C99U G126U,-0.0913
21,G94U G141C U144G,-1.83
22,A107U C118G A147U C149G U151G,≤ -4.2
23,G100U A142C,-4.17
24,G94C G100U,-3.69

row,Variant,polymerase ribozyme fitness (log ratio)
1,G94U U151A,≤ -4.2
2,G94C G100C C131U G133C C149G,≤ -4.2
3,C99G A107C G143C,≤ -4.2
4,U109A G124A G140C,≤ -4.2
5,C103G A120U U146G,-1.37
6,U104C A106G,-0.701
7,C95U U104G,-2.11
8,C96A G140U,-3.47
9,C96A C118U U148C,-2.57
10,U101C,0.385
11,U101A,0.177
12,U101G,0.557
13,G94C G128U,-3.18
14,C96A A98U C103G U109A A121U,≤ -4.2
15,C96G C114A,-4.19
16,C96G C114U,-2.18
17,U109C C114U,-3.87
18,A97U G152A,-2.62
19,C93U U151A,≤ -4.2
20,A113C U148C,-3.73
21,C96A U151G,≤ -4.2
22,C93U A137G,-3.18
23,C95U U139G U148A,-3.14
24,G94C A122C,-0.988

row,Variant,polymerase ribozyme fitness (log ratio)
1,U109G C125U C129U,-4.06
2,C93G C108G C116G G133C,-3.85
3,C93U C125U,-1.43
4,A97U U134G,-2.5
5,C96U A147G,-1.18
6,C96U A147U,1.21
7,C93U C123U U127C U135C,≤ -4.2
8,G94U C95A G152A,-3.85
9,C103U U134A,-2.39
10,C95U C103G,-1.69
11,G94U C116G,-0.502
12,C96U G128U U146C,-3.35
13,C105G G141C,-2.56
14,G94U U148C,-2.92
15,A107G G143U,-3.81
16,A98U A120U G143C,-2.39
17,C95U U146G,-1.04
18,C95U A97U C99U G133U A150G,≤ -4.2
19,A107C C116G,-3.74
20,C93G G141U,-2.01
21,A107U G141C,-3.87
22,A106G A113U U135G,≤ -4.2
23,G94C U127C,-2.45
24,C93U G141A,-1.7

row,Variant,polymerase ribozyme fitness (log ratio)
1,C96G U102A U109C,≤ -4.2
2,U102A A113C,-3.86
3,U101A C105U C114A,-3.17
4,G94A C131U,0.309
5,C99A G143A,-2.02
6,C93U G128U,-3.6
7,C93U G128C,-3.31
8,C99U A115C,-1.19
9,C96G A122U,-1.49
10,G94U U102C,-2.06
11,C96A U145A,0.431
12,G94U A147G,-1.51
13,C93G U146G,-3.41
14,A97U U148C,-1.51
15,A113G A147C,-2.73
16,C93U G133U,-3.7
17,G94A A97U C125G,-2.14
18,C99U G117C,0.786
19,C105U G140A,-2.92
20,U101G A115G,-0.695
21,C93U A137G C149U,-2.47
22,U102A,-0.854
23,U102G,-2.51
24,U102C,-0.787

row,Variant,polymerase ribozyme fitness (log ratio)
1,A98G U127C,-3.01
2,C103G A115C A137G C149G,≤ -4.2
3,G94A G136C,-3.98
4,C96U G124A A147U,0.911
5,C93G G140U,≤ -4.2
6,C95U G141U,0.762
7,C96A A106C,-0.591
8,G94C A97U G136U,-3.38
9,A107G G140U U151A,≤ -4.2
10,C99A A120C U148G,≤ -4.2
11,C93U G152U,-3.49
12,C93U G152A,-3.11
13,U102A C114U A115G A120U,-3.62
14,A97G G133A,-3.61
15,C96G C116G,0.127
16,C93U C95U,-2.43
17,C99U G143C,-2.66
18,A113U G117U,-2.07
19,C114G G124C,-4.13
20,C105U G124U,-0.374
21,G94C,-0.474
22,G94U,1.12
23,G94A,-0.622
24,A110C G136U,≤ -4.2

row,Variant,polymerase ribozyme fitness (log ratio)
1,C99A U134G,-2.57
2,A98U G136U,-2.64
3,G94C G133A,-4.02
4,C96G U146C,-1.45
5,C96A C125G,-0.535
6,C93U G143U,-3.38
7,C93G C118U C123U,-3.29
8,C99G A113C U135C,≤ -4.2
9,U102G A142U,-3.35
10,A110G U134G,-4.07
11,C96G U130C,0.873
12,C96G U148A,-3.53
13,G100A G124A,≤ -4.2
14,A98U A107U C125A A147G,≤ -4.2
15,G94C A115U,-2.98
16,C95U A119U,-0.544
17,C95U A119G,0.353
18,G94A A115U,-1.76
19,C93U C149A,-4.05
20,U102G G152U,≤ -4.2
21,C96G A137U,-4
22,C95U G124C,-0.723
23,G94A A113U A120U,-1.56
24,A97U U104G,-0.956

row,Variant,polymerase ribozyme fitness (log ratio)
1,U104G A120C,0.532
2,C99U U104A U109C A115G,-3.79
3,G94U C125U G143U,-4.16
4,G94C C105G C116A,-2.89
5,U104G A113U U127A G141A,≤ -4.2
6,U101G A138U,-3.25
7,C99A C131G,≤ -4.2
8,C99G C108A A110G,≤ -4.2
9,A98G U127G G141A,≤ -4.2
10,C96G A98U,-0.873
11,C96U U146C,-0.67
12,U101G G128U U144G,-4
13,C95U U130G,-2.55
14,G94C A106C C116U,-3.12
15,U102C C114G,-4.11
16,C96U A122G,-0.14
17,C96U A122C,-0.314
18,A110C A121U,-4.04
19,C103G U130A,-4.04
20,C93G G94U C108G,≤ -4.2
21,C96A C118U,-1.8
22,C93U A98C,-0.981
23,C96A U134A,-2.73
